Data: publication PMC8177707
Like-named read-outs stand apart in the source and are kept apart here.

Key:
Experiment in all cases: cryo-EM structure
[1] = target: full-length wild-type calcium-sensing receptor from Gallus gallus (ggCaSR) (Gallus gallus)
[2] = target: full-length wild-type calcium-sensing receptor from Gallus gallus (ggCaSR) (Gallus gallus); remark: listed apart in the source
[3] = target: full-length wild-type calcium-sensing receptor from Gallus gallus (ggCaSR) (Gallus gallus); remark: listed apart in the source
[4] = target: full-length wild-type calcium-sensing receptor from Gallus gallus (ggCaSR) (Gallus gallus); remark: listed apart in the source

Measured: stoichiometry N

full-length wild-type calcium-sensing receptor from Gallus gallus (ggCaSR)
2: [1] | [2] | [3] | [4]
